Experimental data taken from PMC9943875, “Agonist-controlled competition of RAR and VDR nuclear receptors for heterodimerization with RXR is manifested in their DNA binding” (The Journal of Biological Chemistry, 2023).

T1: mCherry-RXR (retinoid X receptor alpha, N-terminally tagged with mCherry) (UniProt P19793 1-462)
T1 sequence (looked up): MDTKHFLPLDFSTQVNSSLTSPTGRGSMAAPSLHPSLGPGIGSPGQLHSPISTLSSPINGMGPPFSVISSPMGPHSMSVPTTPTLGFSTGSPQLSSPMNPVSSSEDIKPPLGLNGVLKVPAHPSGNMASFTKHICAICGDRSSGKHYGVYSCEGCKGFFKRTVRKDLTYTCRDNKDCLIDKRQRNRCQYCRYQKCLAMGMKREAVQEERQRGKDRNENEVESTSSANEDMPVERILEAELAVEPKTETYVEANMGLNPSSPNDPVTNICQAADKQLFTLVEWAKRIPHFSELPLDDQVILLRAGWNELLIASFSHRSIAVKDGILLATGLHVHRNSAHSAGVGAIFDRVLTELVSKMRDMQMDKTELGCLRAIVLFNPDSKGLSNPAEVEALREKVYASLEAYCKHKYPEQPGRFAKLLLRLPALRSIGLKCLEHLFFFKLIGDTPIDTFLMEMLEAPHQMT

B1: EGFP-VDR (vitamin D receptor, N-terminally tagged with EGFP) (receptor, UniProt P11473 1-427, looked up)
chain: MEAMAASTSLPDPGDFDRNVPRICGVCGDRATGFHFNAMTCEGCKGFFRRSMKRKALFTCPFNGDCRITKDNRRHCQACRLKRCVDIGMMKEFILTDEEVQRKREMILKRKEEEALKDSLRPKLSEEQQRIIAILLDAHHKTYDPTYSDFCQFRPPVRVNDGGGSHPSRPNSRHTPSFSGDSSSSCSDHCITSSDMMDSSSFSNLDLSEEDSDDPSVTLELSQLSMLPHLADLVSYSIQKVIGFAKMIPGFRDLTSEDQIVLLKSSAIEVIMLRSNESFTMDDMSWTCGNQDYKYRVSDVTKAGHSLELIEPLIKFQVGLKKLNLHEEEHVLLMAICIVSPDRPGVQDAALIEAIQDRLSNTLQTYIRCRHPPPGSHLLYAKMIQKLADLRSLNEEHSKQYRCLSFQPECSMKLTPLVLEVFGNEIS
B2: EGFP-RAR (retinoic acid receptor alpha, N-terminally tagged with EGFP) (receptor)
chain: MASNSSSCPTPGGGHLNGYPVPPYAFFFPPMLGGLSPPGALTTLQHQLPVSGYSTPSPATIETQSSSSEEIVPSPPSPPPLPRIYKPCFVCQDKSSGYHYGVSACEGCKGFFRRSIQKNMVYTCHRDKNCIINKVTRNRCQYCRLQKCFEVGMSKESVRNDRNKKKKEVPKPECSESYTLTPEVGELIEKVRKAHQETFPALCQLGKYTTNNSSEQRVSLDIDLWDKFSELSTKCIIKTVEFAKQLPGFTTLTIADQITLLKAACLDILILRICTRYTPEQDTMTFSDGLTLNRTQMHNAGFGPLTDLVFAFANQLLPLEMDDAETGLLSAICLICGDRQDLEQPDRVDMLQEPLLEALKVYVRKRRPSRPHMFPKMLMKITDLRSISAKGAERVITLKMEIPGSMPPLIQEMLENSEGLDTLSGQPGGGGRDGGGLAPPPGSCSPSLSPSSNRSSPATHSP

What was measured:
[1] = biological target: T1, mCherry-RXR (retinoid X receptor alpha, …); assay: cell-based or functional assay
[2] = biological target: TagBFP-RXR (retinoid X receptor alpha tagged with TagBFP) (UniProt P19793)
[3] = biological target: mCherry-RXR (retinoid X receptor alpha, N-terminally tagged with mCherry) (UniProt P19793)

Row | Binder | slow (DNA-bound) fraction ρ2 of EGFP-VDR by FCS in live HEK293 cells, mCherry-RXR coexpressed and 100 nM calcitriol added together [1] [fold] | slow fraction ρ2 of EGFP-RAR by FCS in triple-transfected cells (EGFP-RAR, mCherry-VDR, TagBFP-RXR), no ligand, against ρ2 ∼ 0.38 in cells with RAR and RXR only [2] | slow (DNA-bound) fraction ρ2 of EGFP-RAR by FCS in live HEK293 cells cotransfected with mCherry-RXR, no ligand (∼22% for EGFP-RAR alone) [3]
1 | B1 | 2 | 0.32 | 
2 | B2 |  |  | 0.38
